{"source": "paper PMC4927282", "target": "caveolin-1 (Cav1) (UniProt Q03135)", "sequence (Q03135 whole entry, stated change not applied)": "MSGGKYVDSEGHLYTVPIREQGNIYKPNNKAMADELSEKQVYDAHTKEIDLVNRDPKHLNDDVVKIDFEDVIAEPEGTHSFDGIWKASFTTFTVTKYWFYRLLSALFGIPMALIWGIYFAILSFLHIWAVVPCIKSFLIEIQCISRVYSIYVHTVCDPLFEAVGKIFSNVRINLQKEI", "assay": "acceptor-photobleaching FRET, CFP/YFP pairs", "conditions": "reference: Y14F-CFP/Y14F-YFP pair; sites Y14"}
{"substance": "caveolin-1 (Cav1) (from UniProt Q03135) Y14D-CFP/Y14D-YFP pair", "values": [{"measurement": "other: FRET efficiency", "value": "weaker; reference 0.90 ± 0.13"}]}
